Experimental data reported in patent publication US5830699.

Target: HA-SOK-1 (human)

## catalytic subunit of protein phosphatase 2A (enzyme)
  SOK-1 kinase activity: 40%
